Measured values reported in patent publication US20220204580A1 (AstraZeneca / MedImmune, published 2022).
Numbered stars: 1 amine (or outer) side, 2 acyl side, 3 side chain; on linkers, the order of the positions; unused ones are H or OH. Bridge positions count the residues as written; N and C are the ends. Square brackets hold non-standard residues; d marks the D form. Side chains are listed from the residue outwards. Ends that are not written are not given here. * marks the point of attachment. C18 diacid = O=C(O)CCCCCCCCCCCCCCCCC(=O)*; γGlu = O=C(O)[C@H](CCC(=O)[*:2])N[*:1]; Aib = CC(C)(N)C(=O)O

T1: human calcitonin receptor (human, UniProt P30988 25-474)
T1 sequence (looked up): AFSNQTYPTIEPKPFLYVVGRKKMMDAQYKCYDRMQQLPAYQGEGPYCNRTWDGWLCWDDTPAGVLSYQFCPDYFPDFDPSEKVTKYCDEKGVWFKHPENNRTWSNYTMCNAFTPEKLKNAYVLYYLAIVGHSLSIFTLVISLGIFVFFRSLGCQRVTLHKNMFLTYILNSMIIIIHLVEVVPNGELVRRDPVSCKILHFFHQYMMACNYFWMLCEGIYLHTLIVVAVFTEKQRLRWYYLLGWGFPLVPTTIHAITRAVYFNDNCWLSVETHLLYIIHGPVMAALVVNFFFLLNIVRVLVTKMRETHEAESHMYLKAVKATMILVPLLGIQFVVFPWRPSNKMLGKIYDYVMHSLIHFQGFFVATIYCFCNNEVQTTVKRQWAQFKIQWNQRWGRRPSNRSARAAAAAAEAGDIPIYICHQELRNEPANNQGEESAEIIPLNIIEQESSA

T2: human amylin receptor (calcitonin receptor co-expressed with receptor activity modifying protein, RAMP3) (human, UniProt P30988 25-474; O60896 24-148)
T2 sequence (looked up) 1: T1 sequence (looked up)
T2 sequence (looked up) 2: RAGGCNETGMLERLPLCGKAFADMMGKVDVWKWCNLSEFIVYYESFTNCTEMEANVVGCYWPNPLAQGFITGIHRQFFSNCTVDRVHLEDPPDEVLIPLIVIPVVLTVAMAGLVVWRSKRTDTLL

B1: Peptide 137 (SEQ ID NO: 137) (peptide)
peptide: K([γGlu-C18 diacid])KCNTATCATQRLANFL[Aib]HSSRNFGPILPPTNVGSNTY-NH2
modifications: disulfide 3-8; N-terminus assumed
SMILES: CC[C@H](C)[C@H](NC(=O)[C@@H]1CCCN1C(=O)CNC(=O)[C@H](Cc1ccccc1)NC(=O)[C@H](CC(N)=O)NC(=O)[C@H](CCCNC(=N)N)NC(=O)[C@H](CO)NC(=O)[C@H](CO)NC(=O)[C@H](Cc1c[nH]cn1)NC(=O)C(C)(C)NC(=O)[C@H](CC(C)C)NC(=O)[C@H](Cc1ccccc1)NC(=O)[C@H](CC(N)=O)NC(=O)[C@H](C)NC(=O)[C@H](CC(C)C)NC(=O)[C@H](CCCNC(=N)N)NC(=O)[C@H](CCC(N)=O)NC(=O)[C@@H](NC(=O)[C@H](C)NC(=O)[C@@H]1CSSC[C@H](NC(=O)[C@H](CCCCN)NC(=O)[C@@H](N)CCCCNC(=O)CC[C@H](NC(=O)CCCCCCCCCCCCCCCCC(=O)O)C(=O)O)C(=O)N[C@@H](CC(N)=O)C(=O)N[C@@H]([C@@H](C)O)C(=O)N[C@@H](C)C(=O)N[C@@H]([C@@H](C)O)C(=O)N1)[C@@H](C)O)C(=O)N[C@@H](CC(C)C)C(=O)N1CCC[C@H]1C(=O)N1CCC[C@H]1C(=O)N[C@H](C(=O)N[C@@H](CC(N)=O)C(=O)N[C@H](C(=O)NCC(=O)N[C@@H](CO)C(=O)N[C@@H](CC(N)=O)C(=O)N[C@H](C(=O)N[C@@H](Cc1ccc(O)cc1)C(N)=O)[C@@H](C)O)C(C)C)[C@@H](C)O
B2: Peptide 141 (SEQ ID NO: 141) (peptide)
peptide: K([γGlu-C18 diacid])KCNTATCATQRLANFL[Aib]HSSNNFGPILPPTNVGSRTY-NH2
modifications: disulfide 3-8; N-terminus assumed
SMILES: CC[C@H](C)[C@H](NC(=O)[C@@H]1CCCN1C(=O)CNC(=O)[C@H](Cc1ccccc1)NC(=O)[C@H](CC(N)=O)NC(=O)[C@H](CC(N)=O)NC(=O)[C@H](CO)NC(=O)[C@H](CO)NC(=O)[C@H](Cc1c[nH]cn1)NC(=O)C(C)(C)NC(=O)[C@H](CC(C)C)NC(=O)[C@H](Cc1ccccc1)NC(=O)[C@H](CC(N)=O)NC(=O)[C@H](C)NC(=O)[C@H](CC(C)C)NC(=O)[C@H](CCCNC(=N)N)NC(=O)[C@H](CCC(N)=O)NC(=O)[C@@H](NC(=O)[C@H](C)NC(=O)[C@@H]1CSSC[C@H](NC(=O)[C@H](CCCCN)NC(=O)[C@@H](N)CCCCNC(=O)CC[C@H](NC(=O)CCCCCCCCCCCCCCCCC(=O)O)C(=O)O)C(=O)N[C@@H](CC(N)=O)C(=O)N[C@@H]([C@@H](C)O)C(=O)N[C@@H](C)C(=O)N[C@@H]([C@@H](C)O)C(=O)N1)[C@@H](C)O)C(=O)N[C@@H](CC(C)C)C(=O)N1CCC[C@H]1C(=O)N1CCC[C@H]1C(=O)N[C@H](C(=O)N[C@@H](CC(N)=O)C(=O)N[C@H](C(=O)NCC(=O)N[C@@H](CO)C(=O)N[C@@H](CCCNC(=N)N)C(=O)N[C@H](C(=O)N[C@@H](Cc1ccc(O)cc1)C(N)=O)[C@@H](C)O)C(C)C)[C@@H](C)O
B3: Peptide 142 (SEQ ID NO: 142) (peptide)
peptide: K([γGlu-C18 diacid])KCNTATCATQRLANFL[Aib]HSSNNFGPILPPTNVGSETY-NH2
modifications: disulfide 3-8; N-terminus assumed
SMILES: CC[C@H](C)[C@H](NC(=O)[C@@H]1CCCN1C(=O)CNC(=O)[C@H](Cc1ccccc1)NC(=O)[C@H](CC(N)=O)NC(=O)[C@H](CC(N)=O)NC(=O)[C@H](CO)NC(=O)[C@H](CO)NC(=O)[C@H](Cc1c[nH]cn1)NC(=O)C(C)(C)NC(=O)[C@H](CC(C)C)NC(=O)[C@H](Cc1ccccc1)NC(=O)[C@H](CC(N)=O)NC(=O)[C@H](C)NC(=O)[C@H](CC(C)C)NC(=O)[C@H](CCCNC(=N)N)NC(=O)[C@H](CCC(N)=O)NC(=O)[C@@H](NC(=O)[C@H](C)NC(=O)[C@@H]1CSSC[C@H](NC(=O)[C@H](CCCCN)NC(=O)[C@@H](N)CCCCNC(=O)CC[C@H](NC(=O)CCCCCCCCCCCCCCCCC(=O)O)C(=O)O)C(=O)N[C@@H](CC(N)=O)C(=O)N[C@@H]([C@@H](C)O)C(=O)N[C@@H](C)C(=O)N[C@@H]([C@@H](C)O)C(=O)N1)[C@@H](C)O)C(=O)N[C@@H](CC(C)C)C(=O)N1CCC[C@H]1C(=O)N1CCC[C@H]1C(=O)N[C@H](C(=O)N[C@@H](CC(N)=O)C(=O)N[C@H](C(=O)NCC(=O)N[C@@H](CO)C(=O)N[C@@H](CCC(=O)O)C(=O)N[C@H](C(=O)N[C@@H](Cc1ccc(O)cc1)C(N)=O)[C@@H](C)O)C(C)C)[C@@H](C)O
B4: Peptide 138 (SEQ ID NO: 138) (peptide)
peptide: K([γGlu-C18 diacid])KCNTATCATQRLANFL[Aib]HSSPNFGPILPPTEVGSNTY-NH2
modifications: disulfide 3-8; N-terminus assumed
SMILES: CC[C@H](C)[C@H](NC(=O)[C@@H]1CCCN1C(=O)CNC(=O)[C@H](Cc1ccccc1)NC(=O)[C@H](CC(N)=O)NC(=O)[C@@H]1CCCN1C(=O)[C@H](CO)NC(=O)[C@H](CO)NC(=O)[C@H](Cc1c[nH]cn1)NC(=O)C(C)(C)NC(=O)[C@H](CC(C)C)NC(=O)[C@H](Cc1ccccc1)NC(=O)[C@H](CC(N)=O)NC(=O)[C@H](C)NC(=O)[C@H](CC(C)C)NC(=O)[C@H](CCCNC(=N)N)NC(=O)[C@H](CCC(N)=O)NC(=O)[C@@H](NC(=O)[C@H](C)NC(=O)[C@@H]1CSSC[C@H](NC(=O)[C@H](CCCCN)NC(=O)[C@@H](N)CCCCNC(=O)CC[C@H](NC(=O)CCCCCCCCCCCCCCCCC(=O)O)C(=O)O)C(=O)N[C@@H](CC(N)=O)C(=O)N[C@@H]([C@@H](C)O)C(=O)N[C@@H](C)C(=O)N[C@@H]([C@@H](C)O)C(=O)N1)[C@@H](C)O)C(=O)N[C@@H](CC(C)C)C(=O)N1CCC[C@H]1C(=O)N1CCC[C@H]1C(=O)N[C@H](C(=O)N[C@@H](CCC(=O)O)C(=O)N[C@H](C(=O)NCC(=O)N[C@@H](CO)C(=O)N[C@@H](CC(N)=O)C(=O)N[C@H](C(=O)N[C@@H](Cc1ccc(O)cc1)C(N)=O)[C@@H](C)O)C(C)C)[C@@H](C)O
B5: Peptide 136 (SEQ ID NO: 136) (peptide)
peptide: K([γGlu-C18 diacid])KCNTATCATQRLANFL[Aib]HSSNNFGPILPPTNVGSNTP-NH2
modifications: disulfide 3-8; N-terminus assumed
SMILES: CC[C@H](C)[C@H](NC(=O)[C@@H]1CCCN1C(=O)CNC(=O)[C@H](Cc1ccccc1)NC(=O)[C@H](CC(N)=O)NC(=O)[C@H](CC(N)=O)NC(=O)[C@H](CO)NC(=O)[C@H](CO)NC(=O)[C@H](Cc1c[nH]cn1)NC(=O)C(C)(C)NC(=O)[C@H](CC(C)C)NC(=O)[C@H](Cc1ccccc1)NC(=O)[C@H](CC(N)=O)NC(=O)[C@H](C)NC(=O)[C@H](CC(C)C)NC(=O)[C@H](CCCNC(=N)N)NC(=O)[C@H](CCC(N)=O)NC(=O)[C@@H](NC(=O)[C@H](C)NC(=O)[C@@H]1CSSC[C@H](NC(=O)[C@H](CCCCN)NC(=O)[C@@H](N)CCCCNC(=O)CC[C@H](NC(=O)CCCCCCCCCCCCCCCCC(=O)O)C(=O)O)C(=O)N[C@@H](CC(N)=O)C(=O)N[C@@H]([C@@H](C)O)C(=O)N[C@@H](C)C(=O)N[C@@H]([C@@H](C)O)C(=O)N1)[C@@H](C)O)C(=O)N[C@@H](CC(C)C)C(=O)N1CCC[C@H]1C(=O)N1CCC[C@H]1C(=O)N[C@H](C(=O)N[C@@H](CC(N)=O)C(=O)N[C@H](C(=O)NCC(=O)N[C@@H](CO)C(=O)N[C@@H](CC(N)=O)C(=O)N[C@H](C(=O)N1CCC[C@H]1C(N)=O)[C@@H](C)O)C(C)C)[C@@H](C)O
B6: Peptide 139 (SEQ ID NO: 139) (peptide)
peptide: K([γGlu-C18 diacid])KCNTATCATQRLANFL[Aib]HSSPNFGPILPPTNVGSETY-NH2
modifications: disulfide 3-8; N-terminus assumed
SMILES: CC[C@H](C)[C@H](NC(=O)[C@@H]1CCCN1C(=O)CNC(=O)[C@H](Cc1ccccc1)NC(=O)[C@H](CC(N)=O)NC(=O)[C@@H]1CCCN1C(=O)[C@H](CO)NC(=O)[C@H](CO)NC(=O)[C@H](Cc1c[nH]cn1)NC(=O)C(C)(C)NC(=O)[C@H](CC(C)C)NC(=O)[C@H](Cc1ccccc1)NC(=O)[C@H](CC(N)=O)NC(=O)[C@H](C)NC(=O)[C@H](CC(C)C)NC(=O)[C@H](CCCNC(=N)N)NC(=O)[C@H](CCC(N)=O)NC(=O)[C@@H](NC(=O)[C@H](C)NC(=O)[C@@H]1CSSC[C@H](NC(=O)[C@H](CCCCN)NC(=O)[C@@H](N)CCCCNC(=O)CC[C@H](NC(=O)CCCCCCCCCCCCCCCCC(=O)O)C(=O)O)C(=O)N[C@@H](CC(N)=O)C(=O)N[C@@H]([C@@H](C)O)C(=O)N[C@@H](C)C(=O)N[C@@H]([C@@H](C)O)C(=O)N1)[C@@H](C)O)C(=O)N[C@@H](CC(C)C)C(=O)N1CCC[C@H]1C(=O)N1CCC[C@H]1C(=O)N[C@H](C(=O)N[C@@H](CC(N)=O)C(=O)N[C@H](C(=O)NCC(=O)N[C@@H](CO)C(=O)N[C@@H](CCC(=O)O)C(=O)N[C@H](C(=O)N[C@@H](Cc1ccc(O)cc1)C(N)=O)[C@@H](C)O)C(C)C)[C@@H](C)O

What follows are binders tested against T1, human calcitonin receptor (assay: cell-based or functional assay).
B1 was tested, and the “EC50 (cAMP production)” value was 1.5 nM. For B2, the “EC50 (cAMP production)” value was 3.95 nM. For B3, the “EC50 (cAMP production)” value was 2.27 nM. With B4 the “EC50 (cAMP production)” value was 2.51 nM. With B5 the “EC50 (cAMP production)” value was 0.101 nM. In the case of B6, the “EC50 (cAMP production)” value is reported as 1.04 nM.

These binders were tested against T2, human amylin receptor (calcitonin …) (assay: cell-based or functional assay).
B1 was tested, and the “EC50 (cAMP production)” value was 0.238 nM and the “Ratio (EC50 hCTR / EC50 hAMYR3)” value was 6.3. In the case of B2, the “EC50 (cAMP production)” value is reported as 0.414 nM and the “Ratio (EC50 hCTR / EC50 hAMYR3)” value is reported as 9.5. For B3, the “EC50 (cAMP production)” value was 0.73 nM and the “Ratio (EC50 hCTR / EC50 hAMYR3)” value was 3.1. B4 was tested, and the “EC50 (cAMP production)” value was 0.612 nM and the “Ratio (EC50 hCTR / EC50 hAMYR3)” value was 4.1. For B5, the “EC50 (cAMP production)” value was 0.122 nM and the “Ratio (EC50 hCTR / EC50 hAMYR3)” value was 0.8. For B6, the “EC50 (cAMP production)” value was 0.285 nM and the “Ratio (EC50 hCTR / EC50 hAMYR3)” value was 3.7.
